Target: T1, C3dg (residues 955 to 1303 of complement C3), C1010A (UniProt P01024 955-1303, C1010A)
T1 construct: complement C3, C3dg fragment, residues 955-1303; C1010A prevents thioester formation; a second change (printed A1153E) was made to reverse a mutation of the original gene, so that the natural residue stands at 1153; The His6 tag was moved from the N-terminus to the C-terminus (TEV-His6) and removed with TEV protease; residues of the TEV site probably remain at the C-terminus; also called C3dg …
Experiment: crystal structure; three purified proteins mixed at a 1:1:1 molar ratio before crystallisation at 20 °C (PEG 3350, Hepes pH 7.5 or Tris pH 8.5); 3.18 Å; three heterotrimers in the asymmetric unit
Conditions: both partners purified

T1 sequence (P01024 955-1303 C1010A): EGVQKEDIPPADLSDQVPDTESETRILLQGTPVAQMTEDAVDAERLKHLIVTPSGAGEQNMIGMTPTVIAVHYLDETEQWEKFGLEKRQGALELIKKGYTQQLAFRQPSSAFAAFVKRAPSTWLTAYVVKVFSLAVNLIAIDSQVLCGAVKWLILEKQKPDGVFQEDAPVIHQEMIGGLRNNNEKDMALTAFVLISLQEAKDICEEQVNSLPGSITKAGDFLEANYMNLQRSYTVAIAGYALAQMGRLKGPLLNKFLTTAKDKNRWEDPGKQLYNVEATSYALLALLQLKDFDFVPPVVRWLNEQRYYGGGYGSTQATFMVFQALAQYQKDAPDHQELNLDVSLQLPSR

B1: C-terminal domains 19-20 of human factor H (FH19-20), wild type (domain or fragment)
chain: KDSTGKCGPPPPIDNGDITSFPLSVYAPASSVEYQCQNLYQLEGNKRITCRNGQWSEPPKCLHPCVISREIMENYNIALRWTAKQKLYSRTGESVEFVCKRGYRLSSRSHTLRTTCWDGKLEYPTCAKR
notes: human complement factor H, domains (SCRs) 19-20; also called C-terminus of human factor H
B1: binds.

Reference: publication PMC5708776, “Crystal structure of a tripartite complex between C3dg, C-terminal domains of factor H and OspE of Borrelia burgdorferi” (PLoS ONE, 2017)
